# Laboratory results from patent US20050282743A1, “Molecular interactions in cells” (Arbor Vita Corporation, priority 2001, published 2005).
# T1: GST-HEMBA 1003117 PDZ domain 1 (Homo sapiens (Human)), Q96JH8
# T1 chain: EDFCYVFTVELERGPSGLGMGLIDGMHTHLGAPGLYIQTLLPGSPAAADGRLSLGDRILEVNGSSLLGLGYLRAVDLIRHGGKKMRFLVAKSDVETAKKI
# T2: GST-TIP1 PDZ domain 1 (Table 9 insert) (Homo sapiens (Human)), O14907
# T2 chain: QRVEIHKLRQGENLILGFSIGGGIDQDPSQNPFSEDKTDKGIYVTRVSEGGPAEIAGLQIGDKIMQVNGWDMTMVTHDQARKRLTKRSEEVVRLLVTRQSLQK
# T3: GST-ZO-1 PDZ domain 1 (Rattus norvegicus (Rat)), A0A0G2
# T3 chain: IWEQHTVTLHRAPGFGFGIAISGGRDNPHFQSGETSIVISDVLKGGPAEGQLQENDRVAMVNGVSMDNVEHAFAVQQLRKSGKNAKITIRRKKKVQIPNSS
# T4: GST-AF6 PDZ domain 1 (Homo sapiens (Human)), P55196
# T4 chain: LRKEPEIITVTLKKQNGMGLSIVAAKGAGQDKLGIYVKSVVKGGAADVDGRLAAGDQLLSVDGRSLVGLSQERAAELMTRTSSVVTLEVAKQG
# T5: GST-ZO-2 PDZ domain 1 (Homo sapiens (Human)), Q9UDY2
# T5 chain: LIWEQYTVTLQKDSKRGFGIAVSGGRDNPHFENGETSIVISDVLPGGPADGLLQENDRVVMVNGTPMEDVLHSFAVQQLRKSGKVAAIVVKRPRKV
# T6: GST-PTPL1 PDZ domain 4 (Homo sapiens (Human)), Q12923
# T6 chain: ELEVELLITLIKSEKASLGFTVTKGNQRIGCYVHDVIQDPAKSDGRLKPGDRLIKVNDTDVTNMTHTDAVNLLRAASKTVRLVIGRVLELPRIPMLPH
# T7: GST-MUPP1 PDZ domain 11 (Homo sapiens (Human)), O75970
# T7 chain: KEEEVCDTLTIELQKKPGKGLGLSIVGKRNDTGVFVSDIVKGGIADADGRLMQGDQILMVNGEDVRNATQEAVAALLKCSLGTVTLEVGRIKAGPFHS
# T8: GST-FLJ 10324 PDZ domain 1 [GST: P08515]
# T8 chain: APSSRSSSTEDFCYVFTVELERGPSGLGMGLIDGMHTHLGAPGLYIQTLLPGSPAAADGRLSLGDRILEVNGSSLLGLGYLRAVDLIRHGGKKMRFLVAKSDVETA
# T9: GST-AIPC PDZ domain 1 (Homo sapiens (Human)), O15018
# T9 chain: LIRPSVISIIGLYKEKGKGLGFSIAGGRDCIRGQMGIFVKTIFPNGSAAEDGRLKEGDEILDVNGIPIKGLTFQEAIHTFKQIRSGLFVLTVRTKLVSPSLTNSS
# T10: GST-DLG1 PDZ domain 2 (Homo sapiens), Q12959
# T10 chain: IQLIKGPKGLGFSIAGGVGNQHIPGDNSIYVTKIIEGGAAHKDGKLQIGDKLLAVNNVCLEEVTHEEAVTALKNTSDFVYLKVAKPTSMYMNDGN
# T11: GST-ENIGMA PDZ domain 1 (Homo sapiens (Human)), Q9NR12
# T11 chain: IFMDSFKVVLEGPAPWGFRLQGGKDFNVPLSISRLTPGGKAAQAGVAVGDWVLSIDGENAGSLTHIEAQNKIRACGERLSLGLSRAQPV
# T12: GST-NeDLG PDZ domains 1, 2, Q92796
# T12 chain: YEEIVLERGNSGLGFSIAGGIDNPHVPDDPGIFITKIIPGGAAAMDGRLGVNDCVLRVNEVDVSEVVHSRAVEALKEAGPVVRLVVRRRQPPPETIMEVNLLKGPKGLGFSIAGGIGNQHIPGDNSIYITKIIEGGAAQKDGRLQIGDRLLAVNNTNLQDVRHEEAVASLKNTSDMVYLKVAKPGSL
# T13: GST-DLG2 PDZ domain 2 (Homo sapiens (Human)), Q15700
# T13 chain: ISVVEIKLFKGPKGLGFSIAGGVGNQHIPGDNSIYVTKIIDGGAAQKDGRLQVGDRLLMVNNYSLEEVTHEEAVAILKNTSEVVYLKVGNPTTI
# T14: GST-KIAA0807(S) PDZ domain 1 (Homo sapiens (Human)), Q6P0Q8
# T14 chain: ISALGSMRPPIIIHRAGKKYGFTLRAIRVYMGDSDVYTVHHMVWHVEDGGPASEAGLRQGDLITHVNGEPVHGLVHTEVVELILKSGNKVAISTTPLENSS
# T15: GST-APXL-1 PDZ domain 1 (Homo sapiens (Human)), Q13796
# T15 chain: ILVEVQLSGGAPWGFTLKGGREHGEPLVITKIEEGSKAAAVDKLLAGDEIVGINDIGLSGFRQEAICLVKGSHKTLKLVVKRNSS
# Experiments:
# Test in all cases: G' assay
# [1] = molecular target: GST-PIST PDZ domain 1 (Mus musculus (Mouse)), Q8BH60
# [2] = molecular target: T1, GST-HEMBA 1003117 PDZ domain 1 (Homo …)
# [3] = molecular target: T2, GST-TIP1 PDZ domain 1 (Table 9 insert) …
# [4] = molecular target: T3, GST-ZO-1 PDZ domain 1 (Rattus …)
# [5] = molecular target: T4, GST-AF6 PDZ domain 1 (Homo sapiens …)
# [6] = molecular target: T5, GST-ZO-2 PDZ domain 1 (Homo sapiens …)
# [7] = molecular target: T6, GST-PTPL1 PDZ domain 4 (Homo sapiens …)
# [8] = molecular target: GST-DLG1 PDZ domains 1, 2 (Homo sapiens), Q12959
# [9] = molecular target: T7, GST-MUPP1 PDZ domain 11 (Homo sapiens …)
# [10] = molecular target: T8, GST-FLJ 10324 PDZ domain 1 [GST: P08515]
# [11] = molecular target: GST-KIAA0147 PDZ domain 1 (Homo sapiens (Human)), Q14160
# [12] = molecular target: T9, GST-AIPC PDZ domain 1 (Homo sapiens …)
# [13] = molecular target: GST-KIAA1634 PDZ domain 1 (Homo sapiens (Human)), Q5TCQ9
# [14] = molecular target: T10, GST-DLG1 PDZ domain 2 (Homo sapiens), …
# [15] = molecular target: T11, GST-ENIGMA PDZ domain 1 (Homo sapiens …)
# [16] = molecular target: T12, GST-NeDLG PDZ domains 1, 2, Q92796
# [17] = molecular target: GST-PSD95 PDZ domains 1, 2, 3 (Homo sapiens), P78352
# [18] = molecular target: T13, GST-DLG2 PDZ domain 2 (Homo sapiens …)
# [19] = molecular target: T14, GST-KIAA0807(S) PDZ domain 1 (Homo …)
# [20] = molecular target: T15, GST-APXL-1 PDZ domain 1 (Homo sapiens …)
# Also: key of the grades not given here.
# GST-KIAA0147 PDZ domain 1 (Homo sapiens (Human)), Q14160, sequence (Q14160 other isoform, or with tags, fused parts or gaps): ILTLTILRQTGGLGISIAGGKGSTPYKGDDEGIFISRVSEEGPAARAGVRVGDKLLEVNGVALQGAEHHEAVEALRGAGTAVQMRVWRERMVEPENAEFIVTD
# GST-PSD95 PDZ domains 1, 2, 3 (Homo sapiens), P78352, sequence (P78352 62-395): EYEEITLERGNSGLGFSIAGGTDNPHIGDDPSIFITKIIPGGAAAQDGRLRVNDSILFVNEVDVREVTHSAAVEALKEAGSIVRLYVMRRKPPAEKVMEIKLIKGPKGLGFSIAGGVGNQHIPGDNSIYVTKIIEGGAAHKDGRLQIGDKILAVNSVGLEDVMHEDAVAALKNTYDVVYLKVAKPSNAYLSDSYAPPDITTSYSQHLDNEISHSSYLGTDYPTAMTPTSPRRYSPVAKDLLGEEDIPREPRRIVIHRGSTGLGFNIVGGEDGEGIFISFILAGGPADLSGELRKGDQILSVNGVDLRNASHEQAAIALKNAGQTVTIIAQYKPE
# GST-KIAA1634 PDZ domain 1 (Homo sapiens (Human)), Q5TCQ9, sequence (Q5TCQ9 401-502): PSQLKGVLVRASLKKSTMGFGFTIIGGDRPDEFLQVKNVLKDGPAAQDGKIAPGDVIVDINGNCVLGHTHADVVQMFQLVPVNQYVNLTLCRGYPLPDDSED
Classification [1] [A450 class],Classification [2] [A450 class],Classification [3] [A450 class],Classification [4] [A450 class],Classification [5] [A450 class],Classification [6] [A450 class],Classification [7] [A450 class],Classification [8] [A450 class],Classification [9] [A450 class],Classification [10] [A450 class],Classification [11] [A450 class],Classification [12] [A450 class],Classification [13] [A450 class],Classification [14] [A450 class],Classification [15] [A450 class],Classification [16] [A450 class],Classification [17] [A450 class],Classification [18] [A450 class],Classification [19] [A450 class],Classification [20] [A450 class],Binder
1,1,1,1,1,1,1,1,1,1,–,–,–,–,–,–,–,–,–,–,GPVPGEPAKPKTSAHHATFV (modifications not checked) [RGS12 (regulator of G-protein signaling 12]
–,–,–,–,–,–,–,2,–,–,1,2,4,1,1,2,2,1,1,–,GGGGGSGGGGGSGIESVKI (modifications not checked) [GLUR2 (glutamate receptor 2-modified)]
–,–,–,–,–,–,–,–,–,–,–,–,–,–,1,–,–,–,–,1,EVIGYIEKPGVETLEDSVF (modifications not checked) [CDW125 (modified)]
